Data from patent US20250270304A1 (PHENOMIC AI, published 2025).
Residue numbers refer to the chain shown, from its start.

T1: Inhibin A (Homo sapiens (Human), UniProt P05111 233-366; P08476 311-426)
T1 sequence 1: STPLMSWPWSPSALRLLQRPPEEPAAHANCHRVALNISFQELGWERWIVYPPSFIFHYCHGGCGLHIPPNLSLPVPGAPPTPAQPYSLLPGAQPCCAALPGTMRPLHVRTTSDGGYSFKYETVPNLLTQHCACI
T1 sequence 2: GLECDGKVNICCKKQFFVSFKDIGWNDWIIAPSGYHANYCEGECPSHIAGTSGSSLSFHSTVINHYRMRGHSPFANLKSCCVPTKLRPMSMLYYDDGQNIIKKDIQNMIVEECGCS

T2: Latent Activin A (human, UniProt P08476 21-426, limits assumed)
T2 construct: also called INHBA latent
T2 sequence: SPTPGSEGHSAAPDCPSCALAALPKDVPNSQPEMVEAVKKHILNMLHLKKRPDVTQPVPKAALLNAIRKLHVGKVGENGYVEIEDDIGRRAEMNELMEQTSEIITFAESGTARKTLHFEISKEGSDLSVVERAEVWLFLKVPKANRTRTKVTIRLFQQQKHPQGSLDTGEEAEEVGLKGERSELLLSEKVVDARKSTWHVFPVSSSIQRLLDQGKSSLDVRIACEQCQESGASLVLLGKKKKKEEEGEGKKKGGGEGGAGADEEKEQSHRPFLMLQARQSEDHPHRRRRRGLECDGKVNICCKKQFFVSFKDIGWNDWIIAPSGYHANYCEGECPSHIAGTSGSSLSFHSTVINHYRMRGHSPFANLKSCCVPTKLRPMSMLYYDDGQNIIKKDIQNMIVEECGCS

T3: Activin B (Homo sapiens (Human), UniProt P09529 293-407)
T3 construct: also called Mature Activin B; mature Activin B
T3 sequence: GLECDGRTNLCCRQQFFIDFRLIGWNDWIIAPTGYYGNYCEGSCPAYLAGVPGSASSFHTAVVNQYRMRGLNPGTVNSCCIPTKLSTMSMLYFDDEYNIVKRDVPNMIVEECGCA

T4: Mature Activin A (human, UniProt P08476 311-426)
T4 construct: also called active Activin A; INHBA mature
T4 sequence: T1 sequence 2

B1: AB432 (antibody, IgG1, V domains shown)
VH: QVQLQESGPGLVKPSQTLSLTCTVSGVSLSNVRMGVNWIRQPPGKGLEWIGYVNPSGSTDYNPSLKSRVTMSVDTSKNQFSLKVNSVTAADTAVYYCARAGYPDVWGKGTLVTVSS
VL: EIVMTQSPATLSLSPGERATLSCRASQSISSSQLAWYQQKPGQAPRLLIYGASTRATGIPARFSGSGSGTDFTLTISSLEPEDFAVYYCQQYNDRPRTFGGGTKVEIK
B2: AB731 (antibody, IgG1, V domains shown)
VH: QVQLQQPGTELVKPGASVKLSCKASGYTFTSYWMHWVKQRPGQGLEWIGNINPSNGGTNYNEKFKSKATLTVDKSSSTAYMQLSSLTSEDSAVYYCSITTVVAYWYFDVWGTGTTVTVSS
VL: ENVLTQSPAIMSASPGEKVTISCSASSSVSYMYWYQQKPGSSPKPWIFRTYNLASGVPARFSGSGSGTSYSLTISNMEAEDAATYYCQQRSSYPWTFGGGTKLEIK
notes: also called clone 731
B3: AB349 (antibody, IgG1, V domains shown)
VH: QVQLQESGPGLVKPSQTLSLTCTVSGVSLSNARLGVNWIRQPPGKGLEWIGYGSVTGSTDYNPSLKSRVTMSVDTSKNQFSLKVNSVTAADTAVYYCTTSYLVDTAMVTRWGQGTLVTVSS
VL: EIVMTQSPATLSLSPGERATLSCRASQRIGSDLAWYQQKPGQAPRLLIYSASSRAPGIPARFSGSGSGTDFTLTISSLEPEDFAVYYCSTMAIPFGGGTKVEIK
B4: AB449 (antibody, IgG1, V domains shown)
VH: B1 VH with V27L, V32A, R33K, N54S, P55T, S56T, S58T, L111T
VL: DIQMTQSPSSVSASVGDRVTITCRASQGISRDLAWYQQKPGKAPKLLIYAASTLVSGVPSRFSGSGSGTDFTLTISSLQPEDFANYYCQQYVSAPPYTFGGGTKVEIK
B5: AB338 (antibody, IgG1, V domains shown)
VH: EVQLVESGGGLVQPGGSLRLSCAASGFTASRNYMSWVRQAPGKGLELVASISGSGDYTYYPDSVKGRFTISRDNAKNSLYLQMNSLRAEDTAVYYCARSPRGPRLLGYYYGMDVWGQGTTVTVSS
VL: DIVMTQSPLSLPVTPGEPASISCRSSQSLLHSNEKNYLHWYLQKPGQSPQLLIYDASKRASGVPDRFSGSGSGTDFTLKISRVEAEDVGVYYCVQDLHTPFTFGGGTKVEIK
B6: AB465 (antibody, IgG1, V domains shown)
VH: B1 VH with V27A, L29V, V32A, M34T, V53I, S58R, T59I, L111T
VL: EIVMTQSPATLSLSPGERATLSCRASQTVSSHLAWYQQKPGQAPRLLIYDVSHRASGIPARFSGSGSGTDFTLTISSLEPEDFAVYYCQQYFTLPTFGGGTKVEIK
B7: AB435 (antibody, IgG1, V domains shown)
VH: B1 VH with V27Y, S30T, N31D, V32A, M34I, V53I, S58R, L111T
VL: EIVMTQSPATLSLSPGERATLSCRASQSIGTKLAWYQQKPGQAPRLLIYDASSRVPGIPARFSGSGSGTDFTLTISSLEPEDFAVYYCQQYGSSPPVYSFGGGTKVEIK
B8: AB372 (antibody, IgG1, V domains shown)
VH: QVTLRESGPALVKPTQTLTLTCTVSGFSLSTSGATVNWIRQPPGKALEWIGYITSSGRTVYNSALKSRLTISKDTSKNQVVLTMTNMDPVDTATYYCTTTKIVGATLRDYWGQGTLVTVSS
VL: DIVMTQSPDSLAVSLGERATINCKSSQSVLDTSTNRNYLAWYQQKPGQPPKLLIYGASIRAGGVPDRFSGSGSGTDFTLTISSLQAEDVAVYYCQQSYSHPPTFGGGTKVEIK
B9: AB363 (antibody, IgG1, V domains shown)
VH: B8 VH
VL: DIQMTQSPSSVSASVGDRVTITCRASQGISNDLAWYQQKPGKAPKLLIYDVSNRASGVPSRFSGSGSGTDFTLTISSLQPEDFANYYCQQYDNPPSFGGGTKVEIK
B10: AB352 (antibody, IgG1, V domains shown)
VH: B1 VH with V27F, S28P, N31T, V32S, V53I, S58A, L111T
VL: EIVMTQSPATLSLSPGERATLSCRASQSVSTHLAWYQQKPGQAPRLLIYDATNRATGIPARFSGSGSGTDFTLTISSLEPEDFAVYYCLQYTNYPWTFGGGTKVEIK
B11: AB357 (antibody, IgG1, V domains shown)
VH: EVQLVQSGAEVKKPGASVKVSCKASGYTFPSHYISWVRQAPGQGLEWMGGMNPITGHTIYAQKLQGRGTMTTDPSTSTAYMELRSLRSDDTAVYYCARDMRYDILPGRSYYYGMDVWGQGTTVTVSS
VL: ESALTQPASVSGSPGQSITISCTGTDIRGMSVSWYQQHPGKAPKLMIYEVNQRPSGVSNRFSGSKSGNTASLTISGLQAEDEADYYCAAWDASVAGYVFGGGTKLTVL
B12: AB346 (antibody, IgG1, V domains shown)
VH: B1 VH with V27F, S28P, N31T, V32S, V53I, S58A, L111T
VL: EIVMTQSPATLSLSPGERATLSCRASRSVSSDLAWYQQKPGQAPRLLIYDVSTRATGIPARFSGSGSGTDFTLTISSLEPEDFAVYYCQQYGSSLPPTFGGGTKVEIK
B13: AB433 (antibody, IgG1, V domains shown)
VH: B1 VH with V27F, S28P, N31T, V32S, V53I, S58A, L111T
VL: EIVMTQSPATLSLSPGERATLSCRASQSVRTSLAWYQQKPGQAPRLLIYDTSIRAAGIPARFSGSGSGTDFTLTISSLEPEDFAVYYCQQYGNWHFGGGTKVEIK

Assays:
[1] = molecular target: T1, Inhibin A; assay: ELISA, coated antigen, OD450
Description: (§1) Antibodies were re-expressed in 40 mL cultures of Expi293 cells and purified using protein G magnetic sepharose beads (Cytiva, Marlborough, MA) to provide larger quantities for secondary screening. Secondary screening included dose responses in both functional assays described above (SMAD nuclear localization and fibroblast activations assays) as well as in binding assays to the same antigens listed in Table 3. Plates were coated with 25 μL of 3 μg/mL antigen in 384-well Maxisorp plates overnight at 4° C. with agitation. The next day, the samples in the plates were blocked with 70 μL blocking buffer (PBS+1% BSA+0.1% Tween-20) for 2 hours at room temperature. Plates were then washed three times with 100 μL of wash buffer (PBS+0.1% Tween-20). Primary antibodies in Expi293 expression medium were diluted 1:3 in blocking buffer, 25 μL added per well, and the plates were incubated for an hour at room temperature with agitation. Plates were then washed three times and 25 μL of secondary antibody (goat anti-Human IgG, HRP conjugated; Jackson Immunoresearch) diluted 1:5000 in blocking buffer was added for 30 minutes at room temperature. The wells in the plates were washed six times with wash buffer and TMB substrate was added followed by 1 M H3PO4.

[2] = molecular target: T2, Latent Activin A; assay: ELISA, coated antigen, OD450
Description: as §1

[3] = molecular target: T3, Activin B; assay: ELISA, coated antigen, OD450
Description: as §1

[4] = molecular target: T4, Mature Activin A; assay: ELISA, coated antigen, OD450
Description: as §1

[5] = molecular target: T1, Inhibin A; assay: ELISA, coated antigen, OD450; remark: listed apart in the source
[6] = molecular target: T2, Latent Activin A; assay: ELISA dose-response, coated antigen
Description: as §1

[7] = molecular target: T3, Activin B; assay: ELISA dose-response, coated antigen
Description: as §1

[8] = molecular target: T4, Mature Activin A; assay: ELISA dose-response, coated antigen
Description: as §1

| Binder | fold-change of OD 450 over negative control (BSA) [1] [fold] | fold-change of OD 450 over negative control (BSA) [2] [fold] | fold-change of OD 450 over negative control (BSA) [3] [fold] | fold-change of OD 450 over negative control (BSA) [4] [fold] | binding result [5] | EC50 [6] [nM] | EC50 [7] [nM] | EC50 [8] [nM] |
| --- | --- | --- | --- | --- | --- | --- | --- | --- |
| B1 | 0.74 | 10.4 | 1.72 | 8.86 | no binding (tested: 1.40-fold over BSA) | – | – | – |
| B2 | – | – | – | – | – | 0.87 | 0.49 | 0.42 |
| B3 | 0.22 | 4.34 | 0.27 | 5.14 | – | – | – | – |
| B4 | 0.65 | 4.95 | 0.76 | 6.63 | – | – | – | – |
| B5 | 0.9 | 1.44 | 0.68 | 1.94 | – | – | – | – |
| B6 | 0.46 | 5.82 | 0.87 | 6.84 | – | – | – | – |
| B7 | 0.74 | 6.66 | 0.84 | 8.09 | – | – | – | – |
| B8 | 0.43 | 5.64 | 0.43 | 7.16 | – | – | – | – |
| B9 | 0.53 | 4.82 | 0.63 | 7.63 | – | – | – | – |
| B10 | 0.61 | 15.2 | 2.03 | 16.2 | no binding (tested: 1.40-fold over BSA) | – | – | – |
| B11 | 0.77 | 6.59 | 2.44 | 6.99 | – | – | – | – |
| B12 | 0.58 | 13.8 | 2.46 | 14 | – | – | – | – |
| B13 | 0.72 | 10.5 | 2.5 | 9.41 | – | – | – | – |
